Where two headings read alike, the source gives them in different places.
Assays:
MBNL1-zf12 [1] = target: T1, MBNL1-zf12 (Homo sapiens, UniProt Q9NR56 1-92); assay: BLI
T1 sequence: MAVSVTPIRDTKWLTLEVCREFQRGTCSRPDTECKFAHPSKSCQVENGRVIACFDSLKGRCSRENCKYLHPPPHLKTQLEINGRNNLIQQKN

MBNL1-zf12 [2] = target: T1, MBNL1-zf12; assay: BLI; remark: listed apart in the source
MBNL1-zf12 [3] = target: T1, MBNL1-zf12; assay: NMR HSQC titration

## GUCUCGCUUUUCCCC (ssRNA) [hcTnT15]
MBNL1-zf12 [1]
  Kd: 130 nM

## GUCUCGCUGUUCCCC (ssRNA) [hcTnT15m (U103G)]
MBNL1-zf12 [2]
  Kd: 500 nM

## CUCGCUUUUCCCC (ssRNA) [hcTnT13]
MBNL1-zf12 [3]
  binding result: binds
